Measured values taken from the supplement of paper PMC11865577.

test system: TO-N3 (biotin conjugate); experiment: pull-down binding Z-score (relative to library population); higher = stronger binding; settings: RNA library: Library-2
How it was run: (§1)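 Biotin-conjugated small molecule (100 pmol) on streptavidin beads was incubated with 1 μg of heat-folded Cy5- or Cy3-end-labelled RNA library in phosphate/NaCl/KCl buffer at 25 °C for 60 min. Following three washes, RNA was eluted with hot SDS and hybridised at 55.5 °C for 20 h to a DNA barcode microarray. The binding value is a Z-score computed from the library mean and standard deviation, after subtraction of beads without compound and averaging of barcoded replicate probes with the highest and lowest excluded.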

Sequence | pull-down binding Z-score
GUGUGGAGAGAGCACUGAGCCUGCCCACC [hsa-mir-6849] | 0.55
GUGUGUGGCGUGGGUGCUGCGGGGCCGUCAGGGUGCCUGCGGGACGCUCAC [hsa-mir-6765] | 1.13
GUGUGUUACCUAGAAAUAGCACU [hsa-mir-378a] | -0.282
GUGUUCACACAUAAUGUGUACACCAUGUGUGUACAC [hsa-mir-5692b] | 0.022
GUGUUGGGUAUAAGUAACA [hsa-mir-1270] | 0.257
GUGUUUAUUUUUUACUAAAUAG [hsa-mir-4766] | -0.451
GUGUUUGUGACAUAAUUUGU [hsa-mir-325] | 0.0205
GUGUUUUCUCCUUUAGAGAGAGCUG [hsa-mir-4299] | -0.257
GUUACUAAUCUAACUAAUUGUAAC [hsa-mir-582] | 0.00217
GUUACUGUGGGAACUGGAGGUAAC [hsa-mir-132] | 1.1
GUUAGACCUGGCCCUCUGUCUAAU [hsa-mir-429] | 0.564
GUUAGUUGUGGACACAUACUAAC [hsa-mir-3912] | -1.19
GUUCAGAGUCUGUUUUUGUCUAGC [hsa-mir-29c] | -0.313
GUUCCUGUGAUUUUUC [hsa-mir-198] | -0.29
GUUCGCUUAAUUUAUGACGAAUC [hsa-mir-487a] | -0.395
GUUCGGGGGUUCCGACGGCGAC [hsa-mir-6790] | 2.67
GUUGAAAAAUAUCUAUGUAUUAGUAAAC [hsa-mir-649] | -0.151
GUUGACUGUUGAAUCUCAUGGCAAC [hsa-mir-21] | 0.0029
GUUGCAUGUUGUCACGGCCUCAAUGCAAU [hsa-mir-32] | 0.0815

test system: G-clamp-N3 (biotin conjugate); experiment: as above; settings: RNA library: Library-1 (pre-miRNA loops + repeats)
How it was run: as §1

Sequence | pull-down binding Z-score
GUCCUGACUGCGUGCCAGGGGC [hsa-mir-3650] | 0.903
GUCCUGCCCUCACUGGGAACCCCCUUCCCUCUGGGUACCAG [hsa-mir-1324] | -0.948
GUCUCGGUCCUUUGGAACGUGGC [hsa-mir-4470] | -0.378
GUCUGCCAAAACCUUGGCAGAC [hsa-mir-3913-1] | 0.901
GUCUGCCAAGGUUUUGGCAGAC [hsa-mir-3913-2] | 0.558
GUCUGGCAUUGUCUGAUAUAC [hsa-mir-1294] | 0.671
GUCUGUCACUGGGGAAGUC [hsa-mir-4682] | 1.71
GUCUGUUUUCUUCAUGGUUUUCUGAC [hsa-mir-6759] | 0.125
GUCUUGAUCCCCCACCCCAAGAC [hsa-mir-642b] | -1.37
GUCUUGGGGUGGGGGAUCAAGAC [hsa-mir-642a] | 0.431
GUGAACAUUGCAU [hsa-mir-4301] | -0.223
GUGAACCUGAAUUUGCCUUGGGUUUCCU [hsa-mir-670] | -0.325
GUGACGCCGCGAAGUGCAC [hsa-mir-3147] | 1.18
GUGAGAGAUGCUUCUAGAUCCAGGAGGCAGACCUCAA [hsa-mir-4325] | -0.658
GUGAGAUGUUCAUACAAUCCCUCAC [hsa-mir-216a] | -1.01
GUGAGCGCAGGUCUUUGGCAC [hsa-mir-4450] | 2.36
GUGAGCUCAGCUCCCUGCCUCAC [hsa-mir-3622b] | -1.4
GUGAGCUGGAAAUGGGGUGCUAC [hsa-mir-598] | 1.37
GUGAGGCAGGGAGCUGAGCUCAC [hsa-mir-3622a] | -0.0355
GUGAGGUAUUUUAGUAACAUCAC [hsa-mir-125b-2] | 0.629
GUGAGUGUCUCUUGUCGC [hsa-mir-1281] | 1.22
GUGAGUUAGAAAAGCUCAAUUCAC [hsa-mir-4457] | -0.276
GUGAUAGGAUUUAUCAC [hsa-mir-4999] | -0.554
GUGAUAGUAAUAAAGUCUCAU [hsa-mir-135a-2] | -0.286
GUGAUGUGAGGAGCAACAGGCACCCUCCU [hsa-mir-6792] | -0.596

Sequence | pull-down binding Z-score
GUGAUUACAUUAAAACUUAAAAUUUCAC [hsa-mir-4719] | -1.01
GUGAUUGUCUUCCUCACUCAAUCAG [hsa-mir-4704] | -1.11
GUGCACUUCAUUUACGAUGUAG [hsa-mir-1193] | -0.679
GUGCAGCUUGUACCUGCAC [hsa-mir-1293] | -0.00619
GUGCUGGCAGUGGCCACGUAA [hsa-mir-4276] | 0.096
GUGGAACUGACCUGCCCCCUUUCUC [hsa-mir-6817] | -1.77
GUGGAAUGCAAAGUCCCAC [hsa-mir-5698] | -0.39
GUGGACAGAGGCAAAACUCUAACUUC [hsa-mir-6078] | -1.45
GUGGAGCCAAAAUUAGAAGGGCCAAAAUUCUACCUGGCCCACUACCACAG [hsa-mir-3978] | -0.932
GUGGAGGGUGGUGCCGCCGGGGCCGGGCGCUGUUUCAGCUCGCUUCUCCCCCCAC [hsa-mir-1224] | 0.608
GUGGAGGUAGGCGAGAGUAAUAUAAUUUCUCCAGGAGAACAUCUGAGAGGGGAAGUUGCUUUCCUGCCCUGGCCCUUUCAC [hsa-mir-6076] | -0.319
GUGGAGUCGGGUCAGACUUCAA [hsa-mir-378c] | -1.13
GUGGCCUUGGACAAGCCUCUUGGUUAC [hsa-mir-4672] | -0.419
GUGGCUAAUCAGCUGAUGGUGCCAC [hsa-mir-4715] | -0.109
GUGGCUUCAACCAAGUUCAAAGUCAC [hsa-mir-3186] | -1.08
GUGGCUUGUGGCUGAGUGUCACGCUGC [hsa-mir-6068] | 0.217
GUGGGUCAAGUUUAGAGAUGCACCAAC [hsa-mir-490] | 0.572
GUGGGUUGUGAGGACUGAGGCCAGACCCAC [hsa-mir-181d] | 1.5
GUGGUGGGCACUGCUGGGGUGGGCACAGCAGCCAUGCAGAGCGGGCAUUUGACCCCGUGCCACCCUUUUCCCCAG [hsa-mir-1227] | 0.221
GUGGUUUCAGGGCAGUGAUGUUGCCCCUCGGAAGAUAACUAU [hsa-let-7b] | 0.231
GUGUACAGGGAGGAGACUGUACGUGAGAGAUAGUCAGAUCCGCAUGUUAGAGCAGAGUCUCCUUCGUGUACAG [hsa-mir-4441] | 0.459
GUGUACCUCAUGUGUGUACAC [hsa-mir-5692a-2_5692a-1] | -0.853
GUGUAGAGGCGGAGCACAG [hsa-mir-1471] | 0.507
GUGUAGGGGUGGCUACAC [hsa-mir-4717] | 0.957
GUGUAUGGGCUGAGCCUUGC [hsa-mir-6805] | 0.279

Sequence | pull-down binding Z-score
GUGUCCUGAAAUUCACAGGACUG [hsa-mir-4700] | 1.38
GUGUCCUUUCUUCUGAGAGCUGGACAC [hsa-mir-6500] | 0.00177
GUGUCGCCCCACGAGGGGGACUGU [hsa-mir-4322] | -0.152
GUGUCUGGAGACGCCAGGCAGC [hsa-mir-4323] | -0.529
GUGUCUGGCCCCAGCAGCCCAGACU [hsa-mir-6751] | -0.568
GUGUGGAGAGAGCACUGAGCCUGCCCACC [hsa-mir-6849] | -0.498
GUGUGUGGCGUGGGUGCUGCGGGGCCGUCAGGGUGCCUGCGGGACGCUCAC [hsa-mir-6765] | 1.58
GUGUGUUACCUAGAAAUAGCACU [hsa-mir-378a] | -1.11
GUGUUCACACAUAAUGUGUACACCAUGUGUGUACAC [hsa-mir-5692b] | -0.31
GUGUUGGGUAUAAGUAACA [hsa-mir-1270] | -0.877
GUGUUUAUUUUUUACUAAAUAG [hsa-mir-4766] | -0.918
GUGUUUGUGACAUAAUUUGU [hsa-mir-325] | -1.02
GUGUUUUCUCCUUUAGAGAGAGCUG [hsa-mir-4299] | 0.765
GUUACUAAUCUAACUAAUUGUAAC [hsa-mir-582] | 1.11
GUUACUGUGGGAACUGGAGGUAAC [hsa-mir-132] | 2.34
GUUAGACCUGGCCCUCUGUCUAAU [hsa-mir-429] | -0.787
GUUAGUUGUGGACACAUACUAAC [hsa-mir-3912] | -0.0574
GUUCAGAGUCUGUUUUUGUCUAGC [hsa-mir-29c] | -0.124
GUUCCUGUGAUUUUUC [hsa-mir-198] | -0.819
GUUCGCUUAAUUUAUGACGAAUC [hsa-mir-487a] | 0.269
GUUCGGGGGUUCCGACGGCGAC [hsa-mir-6790] | 3.09
GUUGAAAAAUAUCUAUGUAUUAGUAAAC [hsa-mir-649] | -0.475
GUUGACUGUUGAAUCUCAUGGCAAC [hsa-mir-21] | -0.474
GUUGCAUGUUGUCACGGCCUCAAUGCAAU [hsa-mir-32] | -1.33
